Values of other authors in paper PMC4414177, “A novel orally active water-soluble inhibitor of human glutathione transferase exerts a potent and selective antitumor activity against human melanoma xenografts” (Oncotarget, 2015).

Biological target: GSTP1-1 (Homo sapiens) (UniProt P09211)
Experiment: ELISA

Chain of GSTP1-1 (Homo sapiens) (P09211 2-210): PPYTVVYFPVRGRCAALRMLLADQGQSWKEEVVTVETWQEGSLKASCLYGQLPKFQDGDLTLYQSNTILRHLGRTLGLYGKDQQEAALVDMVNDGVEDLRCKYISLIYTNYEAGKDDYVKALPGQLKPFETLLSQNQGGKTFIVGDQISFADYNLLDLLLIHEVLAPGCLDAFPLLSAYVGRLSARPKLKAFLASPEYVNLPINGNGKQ
Chain of JNK1α2 (P45983 whole entry): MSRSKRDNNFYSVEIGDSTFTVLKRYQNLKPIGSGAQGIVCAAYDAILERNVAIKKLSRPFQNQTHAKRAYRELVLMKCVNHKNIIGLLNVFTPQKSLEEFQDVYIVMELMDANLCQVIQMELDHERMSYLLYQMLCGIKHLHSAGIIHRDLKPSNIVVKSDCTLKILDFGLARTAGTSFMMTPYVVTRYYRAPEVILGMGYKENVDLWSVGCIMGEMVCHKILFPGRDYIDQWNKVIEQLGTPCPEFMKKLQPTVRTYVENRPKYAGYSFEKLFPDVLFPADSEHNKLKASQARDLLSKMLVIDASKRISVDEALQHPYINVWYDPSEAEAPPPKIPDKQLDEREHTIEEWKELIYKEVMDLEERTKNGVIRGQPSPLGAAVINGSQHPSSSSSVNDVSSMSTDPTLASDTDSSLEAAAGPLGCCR
Chain of TRAF2 CTD (Q12933 310-501): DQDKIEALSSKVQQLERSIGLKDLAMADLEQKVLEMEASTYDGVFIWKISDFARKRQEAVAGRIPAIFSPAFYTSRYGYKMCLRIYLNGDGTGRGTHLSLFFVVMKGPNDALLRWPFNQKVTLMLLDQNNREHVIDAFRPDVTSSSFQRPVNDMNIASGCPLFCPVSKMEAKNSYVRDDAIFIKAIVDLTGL

Substance | Kd [µM]
JNK1α2 (from UniProt P45983) | > 10
TRAF2 CTD (from UniProt Q12933) | > 5
